US20210269525A1 (BIOCYTOGEN PHARMACEUTICALS BEIJING, published 2021)

T1: Cynomolgus CD3 epsilon Protein, His Tag (Acrobiosystems, Cat #CDE-05226) (cynomolgus (Macaca fascicularis), UniProt Q95LI5 22-117)
T1 construct: also called monkey CD3e; not shown: His tag
T1 sequence: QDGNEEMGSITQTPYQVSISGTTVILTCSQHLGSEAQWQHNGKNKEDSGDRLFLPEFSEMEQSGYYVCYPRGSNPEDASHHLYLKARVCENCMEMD


Key:
[1] = molecular target: T2, Histidine-tagged human CD3e protein (human, UniProt P07766 23-126); assay: SPR (Biacore), human CD3e
T2 construct: also called hCD3e-His; not shown: His tag

[2] = molecular target: T3, monkey CD3e (Macaca fascicularis) on PBMC (Macaca fascicularis, UniProt Q95LI5 22-198); assay: flow cytometry, Macaca fascicularis PBMC, antibody concentration not given, anti-human IgG Fc-Alexa Fluor647 (1:500), anti-hTcRβ-PerCP (1:30)
T3 construct: Target on PBMC from Macaca fascicularis; also called mfCD3e; monkey PBMC
Description: A 96-well plate was prepared. 25 ul of cell suspension was added to each well. Anti-hCD3 antibodies were added to the 96-well plate. The cells and the antibodies were incubated for 15 minutes at 4° C. 185 ul PBS was then added to each well. After centrifuge at 2000 rpm for 5 minutes, the medium was discarded. The samples were washed again. 25 ul of PBS was then added to resuspend cells.
Anti-human IgG Fc-Alexa Fluror647 (1:500) and anti-hTcRβ PerCP (1:30) were then added to each well. The cells and the antibodies were incubated for 15 minutes at 4° C. 185 ul PBS was then added to each well. After centrifuge, the residues were discarded. The samples were washed again. 25 ul of PBS was then added to resuspend cells. […] In contrast, anti-hTcRβ PerCP cannot bind to monkey PBMC.

[3] = molecular target: T4, human CD3e (T-cell surface glycoprotein CD3 epsilon chain) (human, UniProt P07766 23-207); assay: flow cytometry, human PBMC, antibody 0.01 ug/mL, anti-human IgG Fc-Alexa Fluor647 (1:500), anti-hTcRβ-PerCP (1:30)
T4 construct: Target of the anti-hCD3e antibodies on human PBMC, Jurkat cells and cells expressing human CD3e; on T cells it is part of the CD3/TCR complex; also called hCD3e; CD3e on human PBMC
Description: (§1) PBMC cells were collected from a human subject. After being thawed, the cells were cultured for 3-4 hours. The medium was then discarded, and the cells were resuspended in phosphate-buffered saline (PBS). The cell concentration was then adjusted to 2×10⁶/25 μl PBS.
(§2) A 96-well plate was prepared. 25 ul of cell suspension was added to each well. […] The cells and the antibodies were incubated. After centrifuge, the residues were discarded. The samples were washed again. 25 ul of PBS was then added to each well to resuspend cells.
(§3) Anti-human IgG Fc-Alexa Fluror647 (1:500) and anit-hTcRβ PerCP (1:30) were then added to each well. The cells and the antibodies were incubated and then the cells were washed again by PBS. 300 ul of PBS was then added to each well to resuspend the cells. FACS was performed.

[4] = molecular target: T4, human CD3e (T-cell surface glycoprotein …); assay: flow cytometry, human PBMC, antibody 1 ug/mL, anti-human IgG Fc-Alexa Fluor647 (1:500), anti-hTcRβ-PerCP (1:30)
Description: as §1, §2, §3

[5] = molecular target: T1, Cynomolgus CD3 epsilon Protein, His Tag …; assay: SPR (Biacore), cynomolgus CD3e His tag
Description: The binding affinity of the anti-hCD3e antibodies with monkey CD3e (Cynomolgus CD3 epsilon Protein (SEQ ID NO: 39 AA Gln 22-Asp 117), His Tag, Acrobiosystems, Cat #CDE-05226) were also measured using surface plasmon resonance (SPR) using Biacore (Biacore, INC, Piscataway N.J.) by the methods as described in the examples.

[6] = molecular target: T4, human CD3e (T-cell surface glycoprotein …); assay: flow cytometry, human PBMC, antibody 0.1 ug/mL, anti-human IgG Fc-Alexa Fluor647 (1:500), anti-hTcRβ-PerCP (1:30)
Description: as §1, §2, §3

[7] = molecular target: T4, human CD3e (T-cell surface glycoprotein …); assay: cell-based or functional assay

Row | Kd [1] [nM] | koff [1] [s⁻¹] | kon [1] [M⁻¹ s⁻¹] | upper left quadrant, percent of cells AF647+ / hTcRβ-PerCP- [2] [%] | upper right quadrant, percent of cells AF647+ / hTcRβ-PerCP+ [2] [%] | upper left quadrant, percent of cells AF647+ / hTcRβ-PerCP- [3] [%] | upper right quadrant, percent of cells AF647+ / hTcRβ-PerCP+ [3] [%] | upper left quadrant, percent of cells AF647+ / hTcRβ-PerCP- [4] [%] | upper right quadrant, percent of cells AF647+ / hTcRβ-PerCP+ [4] [%] | Kd [5] [nM] | koff [5] [s⁻¹] | kon [5] [M⁻¹ s⁻¹] | upper left quadrant, percent of cells AF647+ / hTcRβ-PerCP- [6] [%] | upper right quadrant, percent of cells AF647+ / hTcRβ-PerCP+ [6] [%] | EC50, luciferase of Jurkat-Luc-NFAT cells; antibody from supernatant [7] [µg/mL] | EC50, luciferase of Jurkat-Luc-NFAT cells; purified antibody [7] [µg/mL] | Binder
1 | 1.86 | 0.000105 | 56300 | 48.4 | 2.33 | 2.69 | 10.8 | 11.9 | 77.6 | 13.2 | 0.000597 | 45200 | 9.8 | 50.7 | 0.294 | 0.524 | 10A4-H1K1-IgG1-LALA (antibody, V domains shown, Humanized; human IgG1 with LALA mutations; also called H1K1 (humanized 10A4)) VH: QVQLVQSGAEVKKPGASVKVSCKASGYTFTSYYIHWVRQAPGQRLEFIGWIYPGNVNAKYNEKFKGRVTITTDKSASTAYMELSSLRSEDTAVYYCAIKGGNYDWGQGTLVTVSS VL: DVVMTQSPLSLPVTLGQPASISCQSSQSLLDSDGKTYLNWLQQRPGQSPRRLIYLVSKLGSGVPDRFSGSGSGTDFTLKISRVEAEDVGVYYCWQGTHFPRTFGGGTKVEIK
2 | 1.6 | 0.000103 | 64100 | 44.9 | 1.49 | 2.25 | 16 | 15 | 74.4 | – | – | – | 8.54 | 57.1 | 0.253 | – | 10A4-H4K2-IgG1-LALA (antibody, V domains shown, Humanized; human IgG1 with LALA mutations; also called H4K2 (humanized 10A4)) VH: QVQLQQSGAEVKKPGASVRISCKASGYTFTSYYIHWVRQRPGQGLEFIGWIYPGNVNAKYNEKFKGRATLTTDKSASTAYMELSSLRSEDTAVYFCAIKGGNYDWGQGTLVTVSS VL: DVVMTQSPLSLPVTLGQPASISCQSSQSLLDSDGKTYLNWLQQRPGQSPRRLIYLVSKLGSGVPDRFSGSGSGTDFTLKISRVEAEDVGVYYCWQGTHFPRTFGGGTKLEIK
3 | 1.84 | 0.000111 | 60500 | 49.4 | 2.32 | 2.67 | 14.8 | 11.6 | 76.8 | 4.66 | 0.000261 | 55900 | 10.3 | 59.4 | 0.266 | 0.313 | 10A4-H2K1-IgG1-LALA (antibody, V domains shown, Humanized; human IgG1 with LALA mutations; also called H2K1 (humanized 10A4)) VH: QVQLVQSGAEVKKPGASVKISCKASGYTFTSYYIHWVRQAPGQRLEFIGWIYPGNVNAKYNEKFKGRATITTDKSASTAYMELSSLRSEDTAVYYCAIKGGNYDWGQGTLVTVSS VL: DVVMTQSPLSLPVTLGQPASISCQSSQSLLDSDGKTYLNWLQQRPGQSPRRLIYLVSKLGSGVPDRFSGSGSGTDFTLKISRVEAEDVGVYYCWQGTHFPRTFGGGTKVEIK
4 | 1.31 | 8.91e-05 | 68100 | 68.5 | 3.45 | 2.56 | 12 | 12.4 | 76.8 | – | – | – | 9.91 | 51.2 | 0.234 | – | 10A4-H4K1-IgG1-LALA (antibody, V domains shown, Humanized; human IgG1 with LALA mutations; also called H4K1 (humanized 10A4)) VH: QVQLQQSGAEVKKPGASVRISCKASGYTFTSYYIHWVRQRPGQGLEFIGWIYPGNVNAKYNEKFKGRATLTTDKSASTAYMELSSLRSEDTAVYFCAIKGGNYDWGQGTLVTVSS VL: DVVMTQSPLSLPVTLGQPASISCQSSQSLLDSDGKTYLNWLQQRPGQSPRRLIYLVSKLGSGVPDRFSGSGSGTDFTLKISRVEAEDVGVYYCWQGTHFPRTFGGGTKVEIK
5 | 2.21 | 0.000133 | 60200 | 46 | 1.54 | 2.67 | 16.6 | 11 | 79.2 | 11.8 | 0.000508 | 43100 | 10.2 | 56.2 | 0.393 | 0.583 | 10A4-H1K3-IgG1-LALA (antibody, V domains shown, Humanized; human IgG1 with LALA mutations; also called H1K3 (humanized 10A4)) VH: QVQLVQSGAEVKKPGASVKVSCKASGYTFTSYYIHWVRQAPGQRLEFIGWIYPGNVNAKYNEKFKGRVTITTDKSASTAYMELSSLRSEDTAVYYCAIKGGNYDWGQGTLVTVSS VL: not shown
6 | 1.05 | 6.33e-05 | 60300 | 82.7 | 0.225 | 2.68 | 12.5 | 11.5 | 76.6 | – | – | – | 11 | 54.4 | 0.477 | – | 10A4-H4K3-IgG1-LALA (antibody, V domains shown, Humanized; human IgG1 with LALA mutations; also called H4K3 (humanized 10A4)) VH: QVQLQQSGAEVKKPGASVRISCKASGYTFTSYYIHWVRQRPGQGLEFIGWIYPGNVNAKYNEKFKGRATLTTDKSASTAYMELSSLRSEDTAVYFCAIKGGNYDWGQGTLVTVSS VL: not shown
